Results on 1 molecule are retold here after US20190204338A1 (PHYLOGICA, published 2019).

What is called Kd is the equilibrium constant for the complex coming apart. Low values mean higher affinity, high ones lower affinity. Broadly, the koff is the first-order rate constant of dissociation. A high value points to fast dissociation.

Where no end group is shown, it is not given here. His tag = polyhistidine tag from vector pDEST-HisMBP; MBP = not defined here

Assay [1] has as its target T1, MBP-MAP4K4-CNH (biotinylated, immobilised) (human, UniProt P0AEX9 27-392 = MBP; O95819 926-1213, limits assumed, biotinylated (site not given)).
T1 construct: 45 ug/ml on streptavidin biosensors; also called CNH domain of MAP4K4; biotinylated MAP4K4-CNH
Nature of the assay: BLI (Octet-RED), titration, compared with MBP-RAP2A in the same system. The method, then: (§1) Data were acquired with the Data Acquisition software version 6.2 and all steps/dilutions were performed in baseline buffer (PBS pH 8.0) at a rotation rate of 1000 rpm.
A general note: In BLI a coated tip is dipped into the sample, and binding shifts an interference pattern.

For assay [2], the target named is T1, MBP-MAP4K4-CNH (biotinylated, …). Nature of the assay: BLI (Octet-RED), titration 100-1000 nM, global 1:1 fit, immobilised biotinylated MAP4K4-CNH. The method, then:
as §1

The target is the same in assay [3]. Nature of the assay: BLI (Octet-RED), single concentration 1 uM, local 1:1 fit, immobilised biotinylated MAP4K4-CNH. The method, then: as §1

B1: MBP-25C3 (Phylomer 25C3 expressed as a His-MBP tagged fusion) (peptide)
chain: {His tag-MBP}-LGAAGPTHYDHLDCAR
modifications: reading uncertain; also: linker between MBP and peptide not given here
notes: Purified as monomeric protein; also called 25C3 fusion peptide; not shown: His tag of vector pDEST-HisMBP
In the case of B1, the “fold lower binding affinity than RAP2A” value in assay [1] turned out to be 5 fold. Further, the Kd stood at 28 nM in assay [2] and 23.5 nM in assay [3]. The values for the koff in assay [2] and in assay [3] were 0.0001 s⁻¹ and 4.4e-05 s⁻¹, respectively.
